T1: full length human LEPR on cells (human, UniProt P48357 22-1165)
T1 sequence: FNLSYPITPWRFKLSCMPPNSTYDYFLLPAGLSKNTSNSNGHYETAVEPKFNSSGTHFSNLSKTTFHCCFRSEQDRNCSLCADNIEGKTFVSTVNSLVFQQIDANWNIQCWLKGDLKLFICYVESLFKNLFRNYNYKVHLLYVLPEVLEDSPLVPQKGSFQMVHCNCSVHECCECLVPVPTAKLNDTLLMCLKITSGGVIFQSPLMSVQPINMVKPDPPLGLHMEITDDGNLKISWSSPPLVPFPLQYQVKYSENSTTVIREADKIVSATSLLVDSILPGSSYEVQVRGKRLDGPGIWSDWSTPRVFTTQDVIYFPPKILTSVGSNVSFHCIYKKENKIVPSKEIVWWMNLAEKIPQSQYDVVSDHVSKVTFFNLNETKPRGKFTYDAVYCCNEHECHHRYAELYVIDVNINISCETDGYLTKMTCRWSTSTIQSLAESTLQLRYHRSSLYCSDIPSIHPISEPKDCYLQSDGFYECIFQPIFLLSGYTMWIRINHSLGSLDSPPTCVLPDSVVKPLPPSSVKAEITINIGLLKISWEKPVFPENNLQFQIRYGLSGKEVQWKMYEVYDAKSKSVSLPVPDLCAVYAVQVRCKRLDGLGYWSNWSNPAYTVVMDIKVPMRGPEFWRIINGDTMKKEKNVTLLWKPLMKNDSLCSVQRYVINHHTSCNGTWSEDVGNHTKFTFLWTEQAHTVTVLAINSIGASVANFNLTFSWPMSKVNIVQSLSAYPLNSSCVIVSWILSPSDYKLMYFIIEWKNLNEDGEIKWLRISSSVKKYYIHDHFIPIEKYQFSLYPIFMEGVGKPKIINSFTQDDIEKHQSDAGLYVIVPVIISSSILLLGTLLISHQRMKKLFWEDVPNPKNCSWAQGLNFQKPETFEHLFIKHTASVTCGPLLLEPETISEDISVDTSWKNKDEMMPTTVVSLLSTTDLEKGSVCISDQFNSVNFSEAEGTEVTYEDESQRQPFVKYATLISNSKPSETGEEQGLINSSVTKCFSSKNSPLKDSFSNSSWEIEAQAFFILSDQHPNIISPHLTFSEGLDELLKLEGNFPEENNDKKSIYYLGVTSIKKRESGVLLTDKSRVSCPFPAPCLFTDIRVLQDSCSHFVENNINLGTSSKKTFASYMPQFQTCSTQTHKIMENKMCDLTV


What was measured:
[1] = target: T2, extracellular domain portion of LEPR protein expressed with a C-terminal human Fc tag (hLEPR.hFc) (human); experiment: blocking ELISA: 10 nM hLEPR.hFc to coated hLeptin, 500 nM Ab
T2 construct: also called dimeric human LEPR
Procedure: These antibody-protein or protein-protein complexes were then incubated for 1.5 hour at room temperature (RT). […] Samples were developed with a TMB solution (BD Biosciences, #555214; substrate A and B mixed at 1:1 ratio as per manufacturer's instructions) to produce a colorimetric reaction and then neutralized with 1M sulfuric acid before measuring absorbance at 450 nm on a Victor X5 plate reader.
Data analysis was performed using a sigmoidal dose-response model within Prism™ software (GraphPad). […] In the calculation, binding signal of 10 nM of hLEPR.hFc without the presence of the antibody was referenced as 100% binding or 0% blocking; and the baseline signal of buffer alone without the presence of hLEPR.hFc was referenced as 0% binding or 100% blocking.

[2] = target: T1, full length human LEPR on cells; experiment: cell-based or functional assay
[3] = target: T3, human LEPR extracellular domain expressed with a C-terminal myc-myc-hexahistidine tag (hLEPR.mmh) (human, UniProt P48357 22-839); experiment: Luminex, myc-captured full length extracellular domain
T3 construct: also called human LEPR-MMH; monomeric human LEPR
Procedure: Aliquots of microspheres with immobilized anti-myc monoclonal antibodies, prepared as described above, were added individually to 1 mL of the each of these protein supernatants. The microspheres were gently mixed, incubated for two hours at 25° C., washed twice with 1 mL of DBPS, centrifuged to remove the supernatant and finally resuspended in 1 mL of DPBS buffer. Forty-eight μL of anti-myc IgG coupled microspheres from individual reactions with full length human LEPR and with each of the human LEPR domain proteins were withdrawn and mixed together in 3.6 mL of PBS+20 mg/mL BSA+0.05% sodium azide (blocking buffer).
From this mixed pool, 75 μL of microspheres were plated per well on a 96 well filter plate (Millipore, Cat. No: MSBVN1250) and mixed with 25 μL of individual anti-human LEPR monoclonal antibodies (0.5 or 5 µg/mL), incubated for two hours at 25° C. and then washed twice with 200 μL of DPBS with 0.05% Tween 20 (washing buffer). […] After 30 minutes, the samples were washed twice with 200 μL of washing buffer and resuspended in 150 μL of wash buffer. The Median Fluorescence intensity (MFI) of the microspheres was measured in a Luminex Analyzer.

[4] = target: T3, human LEPR extracellular domain …; experiment: SPR, captured mAb, 25C
Procedure: (§1) Equilibrium dissociation constants (KD values) for LEPR binding to purified anti-LEPR monoclonal antibodies were determined using a real-time surface plasmon resonance biosensor using a Biacore 4000 instrument. All binding studies were performed in 10 mM HEPES, 150 mM NaCl, 3 mM EDTA, and 0.05% v/v Surfactant Tween-20, pH 7.4 (HBS-ET) running buffer at 25° C. and 37° C. The Biacore sensor surface was first derivatized by amine coupling with a monoclonal mouse anti-human Fc antibody (GE, #BR-1008-39) to capture anti-LEPR monoclonal antibodies. […] Kinetic association (kₐ) and dissociation (kd) rate constants were determined by fitting the real-time binding sensorgrams to a 1:1 binding model with mass transport limitation using Scrubber 2.0c curve-fitting software. Binding dissociation equilibrium constants (KD) and dissociative half-lives (t½) were calculated from the kinetic rate constants as: […]

[5] = target: T4, Macaca fascicularis LEPR extracellular domain expressed with a C-terminal myc-myc-hexahistidine tag … (Macaca fascicularis, UniProt Q9MYL0 22-837 (rhesus entry)); experiment: SPR, captured mAb, 25C
T4 construct: also called mfLEP.MMH
Procedure: as §1

% blockade [1]	% activation, with 200 pM human Leptin [2]	% activation, without human Leptin [2]	EC50, STAT3-Luc reporter, with 200 pM human Leptin [2]	EC50, STAT3-Luc reporter, without human Leptin [2]	MFI [3]	100 nM hLEPR-MMH Bound (RU) [4]	Kd [4]	koff [4]	kon [4]	t½ [4]	100 nM mfLEP.MMH Bound (RU) [5]	Kd [5]	koff [5]	kon [5]	t½ [5]	Binder
-5%	68%	6%	3.42e-11 M	0.373 nM	10500 MFI	16 RU	52.5 nM	0.000951 s⁻¹	18100 M⁻¹ s⁻¹	12 min	23 RU	58.3 nM	0.00112 s⁻¹	19300 M⁻¹ s⁻¹	10 min	H4H18446P2 (antibody, human IgG4, V domains shown, Fully human antibody with human IgG4 Fc (H4H prefix)) VH: EVQLVESGGGLVQPGGSLRLSCAASGFTFSNYGMTWVRQAPGKGLEWVSAITGGGGSTYYSNSVKGRFTISRDNSKNTVYLRMNSVRAEDTAVYYCAKYKWNFVDDWGQGTTVTVSS VL: not shown
9%	76%	68%	1.91e-10 M	0.187 nM	3300 MFI	36 RU	20.3 nM	0.000529 s⁻¹	26100 M⁻¹ s⁻¹	22 min	83 RU	11.6 nM	0.000463 s⁻¹	40000 M⁻¹ s⁻¹	25 min	H4H17319P2 (antibody, human IgG4, V domains shown, Fully human antibody with human IgG4 Fc (H4H prefix)) VH: QVQLVESGGSVVQPGRSLRLSCAASGFTFSTYAMYWVRQTPGKGLEWVAVLYSDGSNKYYIDSVKGRFTISRDTSTNTLYLQMSSLRADDSALYYCARLNWDYWYFDLWGRGTLVTVSS VL: not shown
7%	88%	65%	7.37e-11 M	0.0862 nM	7510 MFI	39 RU	10.5 nM	0.000246 s⁻¹	23400 M⁻¹ s⁻¹	47 min	66 RU	3.22 nM	0.000141 s⁻¹	43700 M⁻¹ s⁻¹	82 min	H4H16679P2 (antibody, human IgG4, V domains shown, Fully human antibody with human IgG4 Fc (H4H prefix)) VH: QVQLVESGGGVVQPGRSLRLSCTASGFTFSSYAMYWVRQAPGKGLEWVSVIYYDGSYKYYADSVKGRFTISRDNSKNTLYLQMDSLRAEDTAVYYCASYNWNYWYFDFWGRGTLVTVSS VL: not shown
6%	76%	66%	2.57e-10 M	0.207 nM	4700 MFI	32 RU	8.31 nM	0.000196 s⁻¹	23600 M⁻¹ s⁻¹	59 min	75 RU	4.07 nM	0.000133 s⁻¹	32600 M⁻¹ s⁻¹	87 min	H4H17321P2 (antibody, human IgG4, V domains shown, Fully human antibody with human IgG4 Fc (H4H prefix)) VH: QVQLVESGGGVVQPGRSLRLSCEASGFSSSDNAMYWVRQAPGKGLEWVSVIYHDGSYKYYEDSVKGRFTIARDNSKNTLYLQMNSLRAEDTAVYYCARYNWNHWYFDVWGRGTLVTVSS VL: not shown

From patent US20250051465A1 (published 2025)
